Measurements as given in patent US20230257458A1 (SUNSHINE LAKE PHARMA, published 2023).

Key:
[1] = biological target: T1, recombinant CLC (R&D systems, 962-CL-050) (UniProt Q9UBD9 28-225); assay: ELISA, cytokine coated
T1 sequence (looked up): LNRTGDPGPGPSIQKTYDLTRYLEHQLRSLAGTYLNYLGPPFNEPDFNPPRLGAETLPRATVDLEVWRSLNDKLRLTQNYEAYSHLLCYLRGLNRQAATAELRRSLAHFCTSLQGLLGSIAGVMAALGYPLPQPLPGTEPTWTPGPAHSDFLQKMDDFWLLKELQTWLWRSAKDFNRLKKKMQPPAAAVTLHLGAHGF

[2] = biological target: T2, recombinant CNTF (R&D systems, 257-NT-010) (UniProt P26441 2-200); assay: ELISA, cytokine coated
T2 sequence (looked up): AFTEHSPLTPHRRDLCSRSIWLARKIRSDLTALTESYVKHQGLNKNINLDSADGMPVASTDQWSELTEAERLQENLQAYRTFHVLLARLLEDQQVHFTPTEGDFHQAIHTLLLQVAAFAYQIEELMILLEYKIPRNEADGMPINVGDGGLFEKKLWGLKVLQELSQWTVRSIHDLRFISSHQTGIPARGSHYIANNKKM

[3] = biological target: T3, recombinant IL-31 (Peprotech, 200-31) (UniProt Q6EBC2 24-164); assay: ELISA, cytokine coated
T3 sequence (looked up): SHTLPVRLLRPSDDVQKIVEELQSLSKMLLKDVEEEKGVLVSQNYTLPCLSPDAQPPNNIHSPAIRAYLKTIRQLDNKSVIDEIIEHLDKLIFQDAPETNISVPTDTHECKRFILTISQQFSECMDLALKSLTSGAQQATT

[4] = biological target: T4, recombinant IL-11 (LSBio, LS-G132887-10) (UniProt P20809 22-199); assay: ELISA, cytokine coated
T4 construct: also called IL-11 cytokine
T4 sequence (looked up): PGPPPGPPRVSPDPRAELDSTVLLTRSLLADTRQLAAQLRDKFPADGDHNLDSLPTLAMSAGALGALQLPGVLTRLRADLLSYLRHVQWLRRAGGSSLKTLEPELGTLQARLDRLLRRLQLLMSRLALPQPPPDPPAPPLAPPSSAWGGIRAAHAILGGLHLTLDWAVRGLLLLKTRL

[5] = biological target: recombinant IL-6 (Sinobiological-10395-HNAE) (UniProt P05231 30-212); assay: ELISA, cytokine coated
[6] = biological target: T5, recombinant OSM (Genscript-z03132) (UniProt P13725 26-234, limits assumed); assay: ELISA, cytokine coated
T5 sequence (looked up): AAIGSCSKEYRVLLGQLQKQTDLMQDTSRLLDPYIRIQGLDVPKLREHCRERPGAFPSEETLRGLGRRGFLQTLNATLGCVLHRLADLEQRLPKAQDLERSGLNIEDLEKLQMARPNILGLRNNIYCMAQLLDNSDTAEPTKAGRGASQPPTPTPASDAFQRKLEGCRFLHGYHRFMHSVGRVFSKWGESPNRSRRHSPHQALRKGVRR

[7] = biological target: T6, recombinant IL-27 (R&D systems, 2526-IL-010) (UniProt Q8NEV9 29-243; Q14213 21-229); assay: ELISA, cytokine coated
T6 sequence (looked up) 1: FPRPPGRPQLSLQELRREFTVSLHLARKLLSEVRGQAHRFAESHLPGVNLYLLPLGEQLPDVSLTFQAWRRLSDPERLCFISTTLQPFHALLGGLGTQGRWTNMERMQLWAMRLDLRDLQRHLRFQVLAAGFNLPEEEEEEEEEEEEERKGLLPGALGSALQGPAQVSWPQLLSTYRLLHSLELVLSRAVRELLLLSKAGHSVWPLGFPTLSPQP
T6 sequence (looked up) 2: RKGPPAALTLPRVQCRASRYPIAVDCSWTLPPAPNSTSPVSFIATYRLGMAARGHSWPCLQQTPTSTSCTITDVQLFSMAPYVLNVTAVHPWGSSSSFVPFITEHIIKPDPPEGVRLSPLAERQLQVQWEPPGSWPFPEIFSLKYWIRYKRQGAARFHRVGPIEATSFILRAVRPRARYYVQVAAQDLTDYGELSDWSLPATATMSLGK

[8] = biological target: T7, recombinant CT-1 (R&D systems, 612-CD-010) (UniProt Q16619 2-201, limits assumed); assay: ELISA, cytokine coated
T7 sequence (looked up): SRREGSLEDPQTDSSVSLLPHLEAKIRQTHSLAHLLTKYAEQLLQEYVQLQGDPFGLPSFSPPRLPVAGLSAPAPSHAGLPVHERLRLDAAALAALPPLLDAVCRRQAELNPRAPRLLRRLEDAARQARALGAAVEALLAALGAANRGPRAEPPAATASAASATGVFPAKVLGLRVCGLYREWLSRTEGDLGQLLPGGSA

[9] = biological target: T8, recombinant LIF (Peprotech, 300-05) (UniProt P15018 23-202); assay: ELISA, cytokine coated
[10] = biological target: T9, IL-11-Fc protein (UniProt P20809 22-199, limits assumed); assay: flow competition: IL-11-Fc + antibody dilutions on membrane-IL-11R CHO cells
T9 construct: also called IL-11 recombinant protein with Fc tag; not shown: Fc tag
T9 sequence (looked up): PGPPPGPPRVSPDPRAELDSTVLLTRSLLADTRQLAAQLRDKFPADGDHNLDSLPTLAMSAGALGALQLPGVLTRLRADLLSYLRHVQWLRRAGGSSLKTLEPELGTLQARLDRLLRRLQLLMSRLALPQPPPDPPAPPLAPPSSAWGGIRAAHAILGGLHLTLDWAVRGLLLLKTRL
Protocol: Then the plate was incubated with 1.5*10\hat{ }5 membrane-IL-11R CHO cells (100 ul/well) for 1 h at room temperature. After incubation, the plate was centrifuged at 1500 rpm for 5 min, washed three times with PBS, and 1:400 diluted flow secondary antibody Goat-anti-Fc-FITC (Abcam, ab98529) was added with 200 ul/well. Then, the plate was incubated at 4° C. for 1 h, centrifuged at 1500 rpm for 5 min, washed three times with PBS, resuspended cells in 180 ul PBS, and detected by flow cytometry.

[11] = biological target: T3, recombinant IL-31 (Peprotech, 200-31); assay: ELISA, cytokine coated; remark: listed apart in the source
[12] = biological target: T5, recombinant OSM (Genscript-z03132); assay: ELISA, cytokine coated; remark: listed apart in the source
[13] = biological target: T8, recombinant LIF (Peprotech, 300-05); assay: ELISA, cytokine coated; remark: listed apart in the source
[14] = biological target: T10, IL-11 protein (UniProt P20809 22-199, limits assumed); assay: flow competition: IL-11 + antibody on IL-11R cells; lower = more blocking
T10 construct: also called IL-11 antigen
T10 sequence (looked up): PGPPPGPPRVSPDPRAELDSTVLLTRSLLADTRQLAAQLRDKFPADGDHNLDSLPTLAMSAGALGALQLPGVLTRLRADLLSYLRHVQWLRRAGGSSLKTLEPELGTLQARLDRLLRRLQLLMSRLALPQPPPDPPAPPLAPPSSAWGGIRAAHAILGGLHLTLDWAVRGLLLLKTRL
Text: (§1) Cell lines with high secretion of specific antibody were selected for expanded culture and cryopreservation.

[15] = biological target: T10, IL-11 protein; assay: ELISA, monoclonal hybridoma supernatant on IL-11
Text: as §1

T8 sequence (P15018 23-202 limits assumed): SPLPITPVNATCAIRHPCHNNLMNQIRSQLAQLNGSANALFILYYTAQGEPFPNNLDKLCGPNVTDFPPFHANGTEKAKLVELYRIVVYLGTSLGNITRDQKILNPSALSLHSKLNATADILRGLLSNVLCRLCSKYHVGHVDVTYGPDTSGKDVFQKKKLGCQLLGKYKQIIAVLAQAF

B1: 5-20E11-5F2 (antibody, human IgG1, kappa, V domains shown)
VH: QVQLQQSGAELVRPGTSAKISCKASDYTFTNYWLGWLKQRPGHGLEWIGHIYPGGGYTNYNEKFKGKATLTADTSSSTAYMQLSSLTSEDSAVYFCARVRSGNDALDFWGQGTSVTVSS
VL: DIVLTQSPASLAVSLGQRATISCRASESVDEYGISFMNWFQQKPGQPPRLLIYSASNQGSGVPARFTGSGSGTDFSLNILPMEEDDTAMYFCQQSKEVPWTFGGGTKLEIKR
notes: also called 5-20E11-5F2 antibody; 5-20E11-5F2 mAb
**Q.** B1 was tested. Which OD450 nm [1] did it give?
**A.** 0.033

**Q.** What about the OD450 nm [2] of the same binder?
**A.** 0.036

**Q.** What about the OD450 nm [3] of the same binder?
**A.** 0.036

**Q.** What about the OD450 nm [4] of the same binder?
**A.** 1.93

**Q.** What about the OD450 nm [5] of the same binder?
**A.** 0.049

**Q.** And the OD450 nm [6]?
**A.** 0.045

**Q.** And the OD450 nm [7]?
**A.** 0.048

**Q.** And the OD450 nm [8]?
**A.** 0.034

**Q.** What about the OD450 nm [9] of the same binder?
**A.** 0.037

**Q.** And the EC50 [10]?
**A.** 7.54 µg/mL

**Q.** Does B1 bind [11]?
**A.** no binding

**Q.** Does B1 bind [12]?
**A.** no binding

**Q.** Does B1 bind [13]?
**A.** no binding

**Q.** What about the “FITC Mean” value [14] of the same binder?
**A.** 3110

**Q.** And the OD450 [15]?
**A.** 1.6
